These results are taken from doi:10.1101/2021.11.23.469727 (bioRxiv, 2021).

The data set “native gel or EMSA” concerns the molecule itself. Briefly: native gel or EMSA. A general note: A gel shift assay detects complexes by their altered migration in electrophoresis.
A further data set has as its target T1, Halo:atml1ΔST (Arabidopsis thaliana, UniProt Q8RWU4 1-253+483-762, internal_change).
T1 sequence: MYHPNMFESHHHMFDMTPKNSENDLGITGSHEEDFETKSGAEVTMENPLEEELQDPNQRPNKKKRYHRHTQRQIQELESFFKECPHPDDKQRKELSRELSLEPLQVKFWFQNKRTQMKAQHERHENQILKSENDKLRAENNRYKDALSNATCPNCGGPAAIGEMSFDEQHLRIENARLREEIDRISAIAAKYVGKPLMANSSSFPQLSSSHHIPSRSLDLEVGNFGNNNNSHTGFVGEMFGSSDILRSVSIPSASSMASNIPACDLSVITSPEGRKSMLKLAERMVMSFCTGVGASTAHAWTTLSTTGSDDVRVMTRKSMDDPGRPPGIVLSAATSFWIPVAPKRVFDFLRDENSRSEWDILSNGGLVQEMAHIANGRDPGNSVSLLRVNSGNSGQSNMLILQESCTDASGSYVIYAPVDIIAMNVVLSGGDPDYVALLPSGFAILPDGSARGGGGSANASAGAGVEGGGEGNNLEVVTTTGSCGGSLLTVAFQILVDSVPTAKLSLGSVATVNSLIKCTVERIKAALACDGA
Nature of the data set: EMSA.

Another data set concerns the target T2, Halo:pdf2ΔST (Arabidopsis thaliana, UniProt Q93V99 1-244+475-743, internal_change).
T2 sequence: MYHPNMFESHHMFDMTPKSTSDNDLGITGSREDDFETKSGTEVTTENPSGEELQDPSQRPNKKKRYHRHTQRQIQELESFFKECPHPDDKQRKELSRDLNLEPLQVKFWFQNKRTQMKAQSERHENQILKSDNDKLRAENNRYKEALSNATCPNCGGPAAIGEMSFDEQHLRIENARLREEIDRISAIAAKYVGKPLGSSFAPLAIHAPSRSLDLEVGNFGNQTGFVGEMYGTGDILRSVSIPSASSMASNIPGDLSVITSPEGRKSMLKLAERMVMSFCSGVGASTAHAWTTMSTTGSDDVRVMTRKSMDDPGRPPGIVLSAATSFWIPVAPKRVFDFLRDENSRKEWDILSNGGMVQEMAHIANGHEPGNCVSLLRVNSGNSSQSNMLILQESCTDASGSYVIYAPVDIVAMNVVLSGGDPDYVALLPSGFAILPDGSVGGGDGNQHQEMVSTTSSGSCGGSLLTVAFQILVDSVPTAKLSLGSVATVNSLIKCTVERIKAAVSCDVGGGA
Briefly: EMSA.

The next data set deals with T3, Halo:pdf2K107E (Arabidopsis thaliana, UniProt Q93V99 1-743, K107E).
T3 sequence: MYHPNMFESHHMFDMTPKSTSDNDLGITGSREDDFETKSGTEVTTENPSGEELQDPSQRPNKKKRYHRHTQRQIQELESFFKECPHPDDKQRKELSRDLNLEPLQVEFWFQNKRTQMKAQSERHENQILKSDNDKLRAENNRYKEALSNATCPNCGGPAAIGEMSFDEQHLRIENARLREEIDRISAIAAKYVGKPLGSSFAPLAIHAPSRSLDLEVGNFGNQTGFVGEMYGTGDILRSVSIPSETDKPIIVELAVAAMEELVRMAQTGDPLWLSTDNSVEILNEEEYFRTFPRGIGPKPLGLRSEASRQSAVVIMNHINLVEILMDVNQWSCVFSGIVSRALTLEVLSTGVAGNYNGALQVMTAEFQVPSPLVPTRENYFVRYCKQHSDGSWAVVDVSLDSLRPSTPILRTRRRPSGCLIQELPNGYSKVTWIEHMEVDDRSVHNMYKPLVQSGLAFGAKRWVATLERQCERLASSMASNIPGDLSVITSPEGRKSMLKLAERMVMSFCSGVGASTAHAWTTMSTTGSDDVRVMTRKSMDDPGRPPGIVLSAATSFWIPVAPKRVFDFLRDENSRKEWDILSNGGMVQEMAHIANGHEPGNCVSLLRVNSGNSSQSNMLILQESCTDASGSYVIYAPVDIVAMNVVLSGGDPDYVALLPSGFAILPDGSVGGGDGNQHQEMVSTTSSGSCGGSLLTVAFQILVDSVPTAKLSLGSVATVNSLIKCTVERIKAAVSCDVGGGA
Briefly: EMSA.

The next data set concerns the target T4, Halo:PDF2 (Arabidopsis thaliana, UniProt Q93V99 1-743).
T4 sequence: T3 sequence with E107K
Nature of the data set: EMSA.

A further data set concerns the target T5, Halo:ATML1 (Arabidopsis thaliana, UniProt Q8RWU4 1-762).
T5 sequence: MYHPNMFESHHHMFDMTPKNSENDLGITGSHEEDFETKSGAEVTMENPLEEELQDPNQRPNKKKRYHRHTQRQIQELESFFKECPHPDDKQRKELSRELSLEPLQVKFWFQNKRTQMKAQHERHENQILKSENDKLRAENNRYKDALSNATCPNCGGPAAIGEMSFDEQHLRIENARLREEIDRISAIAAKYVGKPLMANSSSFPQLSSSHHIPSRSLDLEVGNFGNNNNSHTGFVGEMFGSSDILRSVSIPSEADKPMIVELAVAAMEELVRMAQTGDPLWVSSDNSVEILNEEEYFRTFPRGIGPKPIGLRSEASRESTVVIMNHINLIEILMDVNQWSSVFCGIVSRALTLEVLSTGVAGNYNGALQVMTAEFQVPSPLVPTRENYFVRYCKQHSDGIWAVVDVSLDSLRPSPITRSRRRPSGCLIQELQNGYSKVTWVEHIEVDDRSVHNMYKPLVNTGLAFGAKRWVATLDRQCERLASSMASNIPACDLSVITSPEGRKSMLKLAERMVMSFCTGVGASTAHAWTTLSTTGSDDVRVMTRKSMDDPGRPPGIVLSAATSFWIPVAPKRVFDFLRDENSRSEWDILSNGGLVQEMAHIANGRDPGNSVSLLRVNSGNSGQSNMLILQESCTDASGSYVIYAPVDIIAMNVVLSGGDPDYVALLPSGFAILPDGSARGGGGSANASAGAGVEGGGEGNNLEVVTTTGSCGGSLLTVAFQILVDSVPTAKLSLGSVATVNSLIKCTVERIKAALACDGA
Nature of the data set: EMSA.

Residue numbers refer to the chain shown, from its start.

B1: Halo:PDF2 (PROTODERMAL FACTOR2, full length, Halo-tagged) (natural protein, Arabidopsis thaliana, UniProt Q93V99 1-743, looked up)
chain: T3 sequence with E107K
As for B1, the “stoichiometry N” value in “native gel or EMSA” stood at 2.

B2: L1-box probe (3x L1 motif) (dsDNA)
DNA 1: GGGTACATTTATACATTTATACATTTAAAT
DNA 2: ATTTAAATGTATAAATGTATAAATGTACCC
On to B2, for which the binding result in the data set with Halo:atml1ΔST is recorded as “binds”; in the data set with Halo:pdf2ΔST, “binds”; with Halo:pdf2K107E, “no binding”; with Halo:PDF2, “binds”; in the data set with Halo:ATML1, “binds”.

B3: ATML1 (Arabidopsis thaliana MERISTEM LAYER1), wild type, protein of the EMSA (natural protein, UniProt Q8RWU4 1-762, looked up)
chain: T5 sequence
As to B3, the “stoichiometry N” value in “native gel or EMSA” was found to be 2.

What is called stoichiometry N is a count of units in the complex or per binding partner.
